Tests used:
[1] = test system: L1 ENp E43A E43A (Homo sapiens); experiment: cleavage_in_vitro; conditions: slightly leaky; 5 mM MgCl2
[2] = target: L1 ENp (L1 ORF2 endonuclease domain) (Homo sapiens) (UniProt O00370); experiment: cleavage_in_vitro; conditions: turnover number; Mg greatly preferred over Mn
Chain of UniProt O00370 (O00370 1-239): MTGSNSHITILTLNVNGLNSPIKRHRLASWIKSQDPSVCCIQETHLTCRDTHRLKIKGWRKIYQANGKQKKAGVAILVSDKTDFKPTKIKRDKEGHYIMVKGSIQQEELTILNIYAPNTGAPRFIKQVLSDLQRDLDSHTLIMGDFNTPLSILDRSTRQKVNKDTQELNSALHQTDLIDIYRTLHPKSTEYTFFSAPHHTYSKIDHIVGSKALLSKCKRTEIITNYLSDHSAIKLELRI

Substance: pBS plasmid, native
- cleavage activity (fold less than wild type) [1]: 20
- activity (phosphodiester bond cleavages per hour) [2]: 2

Source: patent publication US20030121063
